Test results from patent publication US20090029376.

What was measured:
Test in all cases: cleavage_in_vitro
[1] = test system: T1, BsmBI (Bacillus stearothermophilus); conditions: NEB4, 55 C
T1 sequence: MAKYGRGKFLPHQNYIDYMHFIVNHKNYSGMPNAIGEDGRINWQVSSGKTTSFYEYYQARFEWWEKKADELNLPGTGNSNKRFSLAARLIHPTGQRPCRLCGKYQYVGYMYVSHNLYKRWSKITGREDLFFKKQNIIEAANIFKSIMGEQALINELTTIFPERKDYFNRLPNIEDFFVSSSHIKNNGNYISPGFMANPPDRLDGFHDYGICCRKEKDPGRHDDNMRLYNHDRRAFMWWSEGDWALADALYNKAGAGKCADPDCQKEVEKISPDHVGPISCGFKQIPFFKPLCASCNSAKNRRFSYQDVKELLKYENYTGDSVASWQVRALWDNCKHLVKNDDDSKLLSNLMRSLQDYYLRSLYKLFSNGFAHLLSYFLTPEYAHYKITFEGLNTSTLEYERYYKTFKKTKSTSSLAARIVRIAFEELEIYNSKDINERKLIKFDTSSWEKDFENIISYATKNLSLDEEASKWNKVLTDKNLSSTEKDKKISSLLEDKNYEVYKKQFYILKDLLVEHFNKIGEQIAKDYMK

[2] = target: T2, PstI (Providencia stuartii 164) (UniProt P00640); conditions: NEB4, 37 C
T2 sequence: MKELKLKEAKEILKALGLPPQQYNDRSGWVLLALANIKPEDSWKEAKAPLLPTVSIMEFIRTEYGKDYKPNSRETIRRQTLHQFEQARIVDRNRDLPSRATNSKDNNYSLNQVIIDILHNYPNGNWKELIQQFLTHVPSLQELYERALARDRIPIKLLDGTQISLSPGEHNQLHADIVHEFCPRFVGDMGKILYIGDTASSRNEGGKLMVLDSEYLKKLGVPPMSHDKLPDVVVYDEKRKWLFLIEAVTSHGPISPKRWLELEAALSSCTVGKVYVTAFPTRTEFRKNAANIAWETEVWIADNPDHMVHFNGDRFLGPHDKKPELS

[3] = test system: T3, SapI (Saccharopolyspora sp.); conditions: NEB4, 37 C
T3 sequence: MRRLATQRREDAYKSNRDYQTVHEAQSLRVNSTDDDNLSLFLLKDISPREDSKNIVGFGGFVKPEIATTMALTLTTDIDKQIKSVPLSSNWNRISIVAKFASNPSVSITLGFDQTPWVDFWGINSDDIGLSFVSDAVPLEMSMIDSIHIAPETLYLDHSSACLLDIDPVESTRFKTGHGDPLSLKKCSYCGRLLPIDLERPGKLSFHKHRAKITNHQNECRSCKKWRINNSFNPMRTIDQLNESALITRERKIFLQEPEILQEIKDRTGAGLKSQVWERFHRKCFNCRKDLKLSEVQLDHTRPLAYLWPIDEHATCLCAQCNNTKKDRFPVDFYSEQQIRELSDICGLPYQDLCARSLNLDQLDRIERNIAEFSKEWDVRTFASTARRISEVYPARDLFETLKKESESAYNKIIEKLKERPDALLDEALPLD

[4] = test system: T4, SphI-HF K100A (Streptomyces phaeochromogenes); conditions: NEB4, 37 C
T4 sequence: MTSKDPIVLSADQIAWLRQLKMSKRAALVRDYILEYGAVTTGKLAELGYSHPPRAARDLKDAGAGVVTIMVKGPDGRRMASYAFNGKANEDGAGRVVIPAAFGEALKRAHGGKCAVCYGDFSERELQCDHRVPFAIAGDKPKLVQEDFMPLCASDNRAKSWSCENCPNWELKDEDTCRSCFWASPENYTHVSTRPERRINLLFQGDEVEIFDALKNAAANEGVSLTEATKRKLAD

[5] = test system: T5, SspI-HF Y98F (Sphaerotilus species); conditions: NEB4, 37 C
T5 sequence: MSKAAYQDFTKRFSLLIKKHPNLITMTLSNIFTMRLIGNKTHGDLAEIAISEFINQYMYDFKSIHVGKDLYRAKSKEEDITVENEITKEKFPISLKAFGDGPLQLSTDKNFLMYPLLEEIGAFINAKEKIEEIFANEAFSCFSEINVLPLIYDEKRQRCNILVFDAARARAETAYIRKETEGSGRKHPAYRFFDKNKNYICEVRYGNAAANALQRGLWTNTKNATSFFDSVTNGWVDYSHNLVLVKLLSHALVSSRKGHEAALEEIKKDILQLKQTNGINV

Substance lambda phage DNA has an activity (fidelity index) [1] of 4, an activity (fidelity index) [2] of 8 and an activity (fidelity index) [3] of 16. The activity (fidelity index) [4] was over 2000 and the activity (fidelity index) [5] was 500.
